{
  "source": "the supplement of paper PMC10567573",
  "parents": {"B1": {"name": "RAB11A (parent)", "chain": "AVPTDEARAFAEKNGLSFIETSAL"}},
  "data": [
    {"variants_of": "B1", "experiment": "protein stability index of a GFP-peptide fusion (GPS, HEK-293T) (PSI 1-6); higher = more stable", "details": "c terminus: a fixed tail appended", "values": [
      {"variant": "AVPTKEARAFAEKNGLSFIETSAL", "protein stability index": 1.79},
      {"variant": "AVPTLEARAFAEKNGLSFIETSAL", "protein stability index": 2.41},
      {"variant": "AVPTQEARAFAEKNGLSFIETSAL", "protein stability index": 2.07},
      {"variant": "AVPTPEARAFAEKNGLSFIETSAL", "protein stability index": 2.23},
      {"variant": "AVPTHEARAFAEKNGLSFIETSAL", "protein stability index": 2.33},
      {"variant": "AVPTSEARAFAEKNGLSFIETSAL", "protein stability index": 2.19},
      {"variant": "AVPTTEARAFAEKNGLSFIETSAL", "protein stability index": 2.52},
      {"variant": "AVPTNEARAFAEKNGLSFIETSAL", "protein stability index": 1.95},
      {"variant": "AVPTAEARAFAEKNGLSFIETSAL", "protein stability index": 1.77},
      {"variant": "AVPTCEARAFAEKNGLSFIETSAL", "protein stability index": 1.89},
      {"variant": "AVPTVEARAFAEKNGLSFIETSAL", "protein stability index": 2.05},
      {"variant": "AVLTDEARAFAEKNGLSFIETSAL", "protein stability index": 2.59},
      {"variant": "AVNTDEARAFAEKNGLSFIETSAL", "protein stability index": 2.77},
      {"variant": "AVETDEARAFAEKNGLSFIETSAL", "protein stability index": 2.47},
      {"variant": "AVFTDEARAFAEKNGLSFIETSAL", "protein stability index": 2.23},
      {"variant": "AVDTDEARAFAEKNGLSFIETSAL", "protein stability index": 3.01},
      {"variant": "AVTTDEARAFAEKNGLSFIETSAL", "protein stability index": 2.81},
      {"variant": "AVKTDEARAFAEKNGLSFIETSAL", "protein stability index": 2.55},
      {"variant": "AVMTDEARAFAEKNGLSFIETSAL", "protein stability index": 2.47},
      {"variant": "AVCTDEARAFAEKNGLSFIETSAL", "protein stability index": 1.67},
      {"variant": "AVRTDEARAFAEKNGLSFIETSAL", "protein stability index": 2.07},
      {"variant": "AVATDEARAFAEKNGLSFIETSAL", "protein stability index": 2.61},
      {"variant": "AVITDEARAFAEKNGLSFIETSAL", "protein stability index": 2.36},
      {"variant": "AVYTDEARAFAEKNGLSFIETSAL", "protein stability index": 2.23},
      {"variant": "AVHTDEARAFAEKNGLSFIETSAL", "protein stability index": 2.54},
      {"variant": "AVGTDEARAFAEKNGLSFIETSAL", "protein stability index": 2.41},
      {"variant": "AVSTDEARAFAEKNGLSFIETSAL", "protein stability index": 2.57},
      {"variant": "AVQTDEARAFAEKNGLSFIETSAL", "protein stability index": 2.78},
      {"variant": "AVWTDEARAFAEKNGLSFIETSAL", "protein stability index": 2.08},
      {"variant": "AVVTDEARAFAEKNGLSFIETSAL", "protein stability index": 2.14},
      {"variant": "WVPTDEARAFAEKNGLSFIETSAL", "protein stability index": 1.8},
      {"variant": "GVPTDEARAFAEKNGLSFIETSAL", "protein stability index": 2.77},
      {"variant": "YVPTDEARAFAEKNGLSFIETSAL", "protein stability index": 2.23},
      {"variant": "HVPTDEARAFAEKNGLSFIETSAL", "protein stability index": 2.63},
      {"variant": "FVPTDEARAFAEKNGLSFIETSAL", "protein stability index": 3.39},
      {"variant": "VVPTDEARAFAEKNGLSFIETSAL", "protein stability index": 2.49},
      {"variant": "PVPTDEARAFAEKNGLSFIETSAL", "protein stability index": 2.38},
      {"variant": "SVPTDEARAFAEKNGLSFIETSAL", "protein stability index": 2.56},
      {"variant": "KVPTDEARAFAEKNGLSFIETSAL", "protein stability index": 2.8},
      {"variant": "EVPTDEARAFAEKNGLSFIETSAL", "protein stability index": 2.72},
      {"variant": "MVPTDEARAFAEKNGLSFIETSAL", "protein stability index": 2.41},
      {"variant": "RVPTDEARAFAEKNGLSFIETSAL", "protein stability index": 2.46},
      {"variant": "LVPTDEARAFAEKNGLSFIETSAL", "protein stability index": 2.28},
      {"variant": "IVPTDEARAFAEKNGLSFIETSAL", "protein stability index": 2.57},
      {"variant": "TVPTDEARAFAEKNGLSFIETSAL", "protein stability index": 2.55},
      {"variant": "QVPTDEARAFAEKNGLSFIETSAL", "protein stability index": 2.43},
      {"variant": "CVPTDEARAFAEKNGLSFIETSAL", "protein stability index": 1.45},
      {"variant": "NVPTDEARAFAEKNGLSFIETSAL", "protein stability index": 2.4},
      {"variant": "DVPTDEARAFAEKNGLSFIETSAL", "protein stability index": 2.82},
      {"variant": "AVPTDYARAFAEKNGLSFIETSAL", "protein stability index": 1.88},
      {"variant": "AVPTDQARAFAEKNGLSFIETSAL", "protein stability index": 2.52},
      {"variant": "AVPTDAARAFAEKNGLSFIETSAL", "protein stability index": 1.94},
      {"variant": "AVPTDTARAFAEKNGLSFIETSAL", "protein stability index": 1.71},
      {"variant": "AVPTDLARAFAEKNGLSFIETSAL", "protein stability index": 1.6},
      {"variant": "AVPTDCARAFAEKNGLSFIETSAL", "protein stability index": 2.13},
      {"variant": "AVPTDFARAFAEKNGLSFIETSAL", "protein stability index": 1.73},
      {"variant": "AVPTDWARAFAEKNGLSFIETSAL", "protein stability index": 2.07},
      {"variant": "AVPTDHARAFAEKNGLSFIETSAL", "protein stability index": 1.87},
      {"variant": "AVPTDGARAFAEKNGLSFIETSAL", "protein stability index": 1.87},
      {"variant": "AVPTDNARAFAEKNGLSFIETSAL", "protein stability index": 2.24},
      {"variant": "AVPTDSARAFAEKNGLSFIETSAL", "protein stability index": 2.09},
      {"variant": "AVPTDRARAFAEKNGLSFIETSAL", "protein stability index": 2.25},
      {"variant": "AVPTDKARAFAEKNGLSFIETSAL", "protein stability index": 1.8},
      {"variant": "AVPTDPARAFAEKNGLSFIETSAL", "protein stability index": 1.74},
      {"variant": "AVPTDIARAFAEKNGLSFIETSAL", "protein stability index": 1.73},
      {"variant": "AVPTDDARAFAEKNGLSFIETSAL", "protein stability index": 2.18},
      {"variant": "AVPTDVARAFAEKNGLSFIETSAL", "protein stability index": 1.83},
      {"variant": "AVPTDMARAFAEKNGLSFIETSAL", "protein stability index": 2.15},
      {"variant": "AVPTDEIRAFAEKNGLSFIETSAL", "protein stability index": 2.21},
      {"variant": "AVPTDEFRAFAEKNGLSFIETSAL", "protein stability index": 2.48},
      {"variant": "AVPTDEHRAFAEKNGLSFIETSAL", "protein stability index": 2.43},
      {"variant": "AVPTDEERAFAEKNGLSFIETSAL", "protein stability index": 3.29},
      {"variant": "AVPTDECRAFAEKNGLSFIETSAL", "protein stability index": 1.83},
      {"variant": "AVPTDEDRAFAEKNGLSFIETSAL", "protein stability index": 2.99},
      {"variant": "AVPTDEGRAFAEKNGLSFIETSAL", "protein stability index": 2.17},
      {"variant": "ADPTDEARAFAEKNGLSFIETSAL", "protein stability index": 2.74},
      {"variant": "ANPTDEARAFAEKNGLSFIETSAL", "protein stability index": 2.52},
      {"variant": "ACPTDEARAFAEKNGLSFIETSAL", "protein stability index": 2.15},
      {"variant": "AIPTDEARAFAEKNGLSFIETSAL", "protein stability index": 2.18},
      {"variant": "ALPTDEARAFAEKNGLSFIETSAL", "protein stability index": 2.48},
      {"variant": "AWPTDEARAFAEKNGLSFIETSAL", "protein stability index": 2.05},
      {"variant": "ARPTDEARAFAEKNGLSFIETSAL", "protein stability index": 2.56},
      {"variant": "ATPTDEARAFAEKNGLSFIETSAL", "protein stability index": 2.47},
      {"variant": "AEPTDEARAFAEKNGLSFIETSAL", "protein stability index": 2.97},
      {"variant": "AMPTDEARAFAEKNGLSFIETSAL", "protein stability index": 2.67},
      {"variant": "APPTDEARAFAEKNGLSFIETSAL", "protein stability index": 2.98},
      {"variant": "AAPTDEARAFAEKNGLSFIETSAL", "protein stability index": 2.51},
      {"variant": "AGPTDEARAFAEKNGLSFIETSAL", "protein stability index": 2.73},
      {"variant": "AQPTDEARAFAEKNGLSFIETSAL", "protein stability index": 2},
      {"variant": "AHPTDEARAFAEKNGLSFIETSAL", "protein stability index": 2.46},
      {"variant": "AYPTDEARAFAEKNGLSFIETSAL", "protein stability index": 2.49},
      {"variant": "AKPTDEARAFAEKNGLSFIETSAL", "protein stability index": 2.11},
      {"variant": "AFPTDEARAFAEKNGLSFIETSAL", "protein stability index": 2.35},
      {"variant": "ASPTDEARAFAEKNGLSFIETSAL", "protein stability index": 2.48}
    ]}
  ]
}
